Columns and labels:
Test in all cases: SPR (BIACORE), antibody captured, FcγR analyte, 25 C; KD of SG1 divided by KD of variant
[1] = target: T1, human FcγRIIaH extracellular domain, His-tagged (human, UniProt P12318 34-217)
T1 construct: also called human FcγRIIa (type H); FcgRIIaH
T1 sequence: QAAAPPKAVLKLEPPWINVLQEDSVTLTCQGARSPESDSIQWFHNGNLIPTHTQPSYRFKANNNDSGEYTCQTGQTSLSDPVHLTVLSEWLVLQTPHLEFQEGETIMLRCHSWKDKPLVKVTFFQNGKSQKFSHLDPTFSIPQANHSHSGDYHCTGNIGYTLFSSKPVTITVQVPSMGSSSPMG

[2] = target: T2, human FcγRIIb extracellular domain, His-tagged (human, UniProt P31994 43-217)
T2 construct: also called human FcgRIIb; FcgRIIb (human)
T2 sequence: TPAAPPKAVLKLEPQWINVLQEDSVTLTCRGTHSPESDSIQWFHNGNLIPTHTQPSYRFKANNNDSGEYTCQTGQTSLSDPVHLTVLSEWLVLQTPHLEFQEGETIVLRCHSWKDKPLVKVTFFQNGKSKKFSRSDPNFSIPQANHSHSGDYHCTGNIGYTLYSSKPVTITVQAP

[3] = target: T3, human FcγRIIIaV extracellular domain, His-tagged (human, UniProt P08637 17-208)
T3 construct: also called human FcγRIIIa (V158); FcgRIIIaV
T3 sequence (P08637 17-208 F176V): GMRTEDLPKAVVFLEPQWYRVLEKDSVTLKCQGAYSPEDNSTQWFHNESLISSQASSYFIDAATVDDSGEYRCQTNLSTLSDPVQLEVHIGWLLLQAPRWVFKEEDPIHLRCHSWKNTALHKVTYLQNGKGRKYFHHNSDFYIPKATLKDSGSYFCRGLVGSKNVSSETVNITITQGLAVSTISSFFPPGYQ

B1: M103205H795-MY450/M103202L889-SK1 (antibody, human IgG1, kappa, name in EU numbering)
heavy: QVTLKESGPVLVKPTETLTLTCTVSGIDLSHDDISWVRQAPGKGLEWVGIISYAGSTYYASWAKGRLTISKDTSKNQVVLTMTNMDPVDTATYYCARGVPAYSHGGDLWGQGTLVTVSSASTKGPSVFPLAPSSKSTSGGTAALGCLVKDYFPEPVTVSWNSGALTSGVHTFPAVLQSSGLYSLSSVVTVPSSSLGTQTYICNVNHKPSNTKVDKKVEPKSCDKTHTCPPCPAMELLTGPSVFLFPPKPKDTLMISRTPEVTCVVVDVSDEDPEVKFNWYVDGVEVHNAKTKPREEQYNSTYRVVSVLTVLHQDWLNGKEYKCKVSNKALPKPIEKTISKAKGQPREPQVYTLPPSREEMTKNQVSLTCLVKGFYPSDIAVEWESNGQPENNYKTTPPVLDSDGSFFLYSKLTVDKSRWQQGNVFSCSVMHEALHNHYTQKSLSLSP
light: DIVMTQSPATLSLSPGERATLSCTSSQSVYHANWLSWFQQKPGQPPKLLIYWASTLAYGVPSRFSGSGSGTDFTLTISSLQPEDAATYYCAGGYGGGRYAFGQGTKVEIKRTVAAPSVFIFPPSDEQLKSGTASVVCLLNNFYPREAKVQWKVDNALQSGNSQESVTEQDSKDSTYSLSSTLTLSKADYEKHKVYACEVTHQGLSSPVTKSFNRGEC
KD fold (SG1 = 1) [1]: 5.3 fold
KD fold (SG1 = 1) [2]: 9.8 fold
KD fold (SG1 = 1) [3]: 0.2 fold

— patent publication US20250076311A1 (Chugai, published 2025)
